Test results: article PMC7617670, “Activity Regulation of a Glutamine Amidotransferase Bienzyme Complex by Substrate-Induced Subunit Interface Expansion” (ACS catalysis, 2025)
Changes are numbered by the printed parent chain. Names may count otherwise.

B1: PabB, synthase subunit of aminodeoxychorismate synthase (ADCS) from Escherichia coli, wild type (enzyme)
chain: MKTLSPAVITLLWRQDAAEFYFSRLSHLPWAMLLHSGYADHPYSRFDIVVAEPICTLTTFGKETVVSESEKRTTTTDDPLQVLQQVLDRADIRPTHNEDLPFQGGALGLFGYDLGRRFESLPEIAEQDIVLPDMAVGIYDWALIVDHQRHTVSLLSHNDVNARRAWLESQQFSPQEDFTLTSDWQSNMTREQYGEKFRQVQEYLHSGDCYQVNLAQRFHATYSGDEWQAFLQLNQANRAPFSAFLRLEQGAILSLSPERFILCDNSEIQTRPIKGTLPRLPDPQEDSKQAVKLANSAKDRAENLMIVDLMRNDIGRVAVAGSVKVPELFVVEPFPAVHHLVSTITAQLPEQLHASDLLRAAFPGGSITGAPKVRAMEIIDELEPQRRNAWCGSIGYLSFCGNMDTSITIRTLTAINGQIFCSAGGGIVADSQEEAEYQETFDKVNRILKQLEK
B2: PabA double variant [Y127A, S171A] (enzyme, Escherichia coli)
chain: MILLIDNYDSFTWNLYQYFCELGADVLVKRNDALTLADIDALKPQKIVISPGPCTPDEAGISLDVIRHYAGRLPILGVCLGHQAMAQAFGGKVVRAAKVMHGKTSPITHNGEGVFRGLANPLTVTRAHSLVVEPDSLPACFDVTAWSETREIMGIRHRQWDLEGVQFHPEAILSEQGHQLLANFLHR
notes: PabA, glutaminase subunit of ADCS, E. coli; construct as m1 with two exchanges; Made by mutagenesis from the construct of m1; source: E. coli BL21-Gold (DE3), purified (Ni-IMAC, preparative gel filtration)
B3: PabA variant aC54A (enzyme, Escherichia coli)
chain: B2 chain with C54A, A127Y, A171S
notes: PabA, glutaminase subunit of ADCS, E. coli; construct as m1 with one exchange; Made by QuikChange mutagenesis from the construct of m1; source: E. coli BL21-Gold (DE3), purified (Ni-IMAC, preparative gel filtration)
B4: PabA variant aC54G (enzyme, Escherichia coli)
chain: B2 chain with C54G, A127Y, A171S
notes: as for B3
B5: PabA variant aH128A (enzyme, Escherichia coli)
chain: B2 chain with A127Y, H128A, A171S
notes: as for B3
B6: PabA variant aP53A (enzyme, Escherichia coli)
chain: B2 chain with P53A, A127Y, A171S
notes: as for B3
B7: PabA variant aR30E (enzyme, Escherichia coli)
chain: B2 chain with R30E, A127Y, A171S
notes: as for B3
B8: PabA variant aS171A (enzyme, Escherichia coli)
chain: B2 chain with A127Y
notes: as for B3
B9: PabB variant bD308A (enzyme, Escherichia coli)
chain: B1 chain with D308A
B10: PabB variant bD308E (enzyme, Escherichia coli)
chain: B1 chain with D308E
B11: PabB variant bD308N (enzyme, Escherichia coli)
chain: B1 chain with D308N
B12: PabB variant bE119R (enzyme, Escherichia coli)
chain: B1 chain with E119R
B13: PabB variant bR311A (enzyme, Escherichia coli)
chain: B1 chain with R311A
B14: PabA, glutaminase subunit of ADCS from Escherichia coli, as crystallized, with glutamyl thioester (Gln-TE) on aC79 (enzyme)
chain: B2 chain with A127Y, A171S
modifications: glutamyl thioester (Gln-TE) adduct covalently bound to the catalytic C79
notes: PabA, class I glutaminase subunit of ADCS, E. coli; the gene was cloned into pET28a; Same construct as m20; the adduct forms in one of the two heterodimers of the crystals grown with Gln; also called PabA with Gln-TE; source: E. coli BL21-Gold (DE3), purified (Ni-IMAC, TEV cleavage, reverse IMAC, preparative gel filtration); crystallized with 0.2 M L-Gln; not shown: His6, N-terminal, cleaved

Legend:
[1] = molecular target: T1, PabA, glutaminase subunit of aminodeoxychorismate synthase (ADCS) from Escherichia coli, wild type (Escherichia coli, UniProt P00903 1-187); experiment: cell-based or functional assay
T1 sequence: B2 chain with A127Y, A171S

PabA variant aR30E = molecular target: B7; experiment: cell-based or functional assay
[2] = molecular target: B1; experiment: SEC; analytical SEC with 5 mM L-Gln in the buffer; PabA and PabB mixed equimolar, 50 μM each; Superdex 200 increase 10/300 GL; 50 mM Tris/HCl pH 7.5, 50 mM KCl, 5 mM MgCl2, 2 mM DTT; 25 °C; without Cho; settings: both partners purified
[3] = molecular target: B1; experiment: ITC; 250 μM PabB titrated into 25 μM PabA in the cell; 25 °C; 50 mM Tris/HCl pH 7.5, 50 mM KCl, 5 mM MgCl2; without Cho and Gln; one set of sites; settings: both partners purified
[4] = molecular target: T2, PabB, synthase subunit of ADCS from Escherichia coli, as crystallized (His tag cleaved) (Escherichia coli, UniProt P05041 1-453); experiment: crystal structure; ADCS heterodimer with Gln-TE on aC79; reservoir supplemented with 0.2 M L-Gln, with or without 14.4 mM Cho added afterwards; 0.1 M MES pH 6.5, 1.5 M magnesium sulfate, 18 °C; settings: both partners purified
T2 construct: PabB, synthase subunit of ADCS, E. coli; the gene was cloned into pET28a; Cho and Mg2+ in 8RP0; also called ADCS synthase subunit; source: E. coli BL21-Gold (DE3), purified (Ni-IMAC, TEV cleavage, reverse IMAC, preparative gel filtration); not shown: His6, N-terminal, cleaved
T2 sequence: B1 chain

B1
glutaminase catalytic efficiency kcat/KM^Gln (coupled GDH assay, 200 μM Cho, PabB in fourfold excess) [1]: 1090 M⁻¹ s⁻¹ | glutaminase catalytic efficiency kcat/KM^Gln (coupled GDH assay, 200 μM Cho, PabB in fourfold excess) (PabA variant aR30E): 79 M⁻¹ s⁻¹

B2
binding result [2]: binds

B3
Kd [3]: 180 nM

B4
Kd [3]: 60 nM

B5
Kd [3]: 370 nM

B6
Kd [3]: 180 nM

B7
Kd [3]: 380 nM

B8
Kd [3]: 920 nM

B9
glutaminase catalytic efficiency kcat/KM^Gln (coupled GDH assay, 200 μM Cho, PabB in fourfold excess) [1]: 13 M⁻¹ s⁻¹

B10
glutaminase catalytic efficiency kcat/KM^Gln (coupled GDH assay, 200 μM Cho, PabB in fourfold excess) [1]: 1540 M⁻¹ s⁻¹

B11
glutaminase catalytic efficiency kcat/KM^Gln (coupled GDH assay, 200 μM Cho, PabB in fourfold excess) [1]: 36 M⁻¹ s⁻¹

B12
glutaminase catalytic efficiency kcat/KM^Gln (coupled GDH assay, 200 μM Cho, PabB in fourfold excess) [1]: 60 M⁻¹ s⁻¹

B13
glutaminase catalytic efficiency kcat/KM^Gln (coupled GDH assay, 200 μM Cho, PabB in fourfold excess) [1]: 100 M⁻¹ s⁻¹

B14
binding result [4]: binds
